US20250025566A1, “PEPTIDE-DRUG CONJUGATES FOR TREATMENT OF NEURODEGENERATIVE DISEASES” (KØBENHAVNS UNIVERSITET, priority 2021, published 2025)
Square brackets hold non-standard residues; d marks the D form. Side chains are listed from the residue outwards. Ends that are not written are not given here. * marks the point of attachment. memantine = CC12CC3CC(C)(C1)CC(N*)(C3)C2; disulfide linker = not defined here; Pen = CC(C)(S)[C@H](N)C(=O)O

Columns and labels:
[1] = test system: primary rat hippocampal neurons; assay: Neuroprotection in primary hippocampal neurons (NMDA-induced neurotoxicity, LDH activity); format: cell-based; details: NMDA 100 μM, 24 hours, GLP-1 1 μM
Method: Primary rat hippocampal neurons were incubated with either buffer, NMDA (to induce neurotoxicity), NDMA+GLP-1 or NMDA+GLP-1/memantine conjugate for 24 hours. Media was harvested and analysed for Lactate Dehydrogenase (LDH) activity as an indirect measure of cellular cytotoxicity.
Primary cultures of hippocampal neurons were prepared from Sprague-Dawley rat fetuses (E18) and cells were diluted in Neurobasal medium containing B27 supplement (5×10^5 cells/mL) in a Poly-L-Lysin pre-coated 24-well cell culture plate. The neurons were kept at 37° C. in a humidified incubator with 5% C02 atmosphere. After 8 days in vitro, cultures were treated with either vehicle, NMDA (100 μM), NMDA+GLP-1 (1 μM) or NMDA+GLP-1/Memantine for 24 hours. Cell culture medium (50 μL) was dispatched to a 96-well ELISA plate and analyzed for Lactate Dehydrogenase (LDH) activity (CytoTox-96, Nonradioactive Cytotoxicity assay, Promega) according to the manufacturer's protocol.

[2] = test system: pro-inflammatory markers IL-1b, IL-6 and TNF-α; assay: Gene expression of pro-inflammatory markers in hippocampus of 5×FAD mice (qPCR); format: in vivo; details: once-daily subcutaneous, 49 days
Method: Expression (as measured by mRNA) of pro-inflammatory markers, IL-1b, IL-6 and TNF-α increased across the board in the 5×FAD AD mouse model.
Experiments were conducted using female 5×FAD (Jackson Laboratory, 34840-JAX) mice kept on a chow diet (Altromin #1310, Lage, Germany). The pharmacological studies were initiated at 8-week of age and the mice treated with once-daily subcutaneous injections of GLP-1/memantine or saline (control) for 49 days with weekly measurements of body weight. Specifically, compounds were administered at a volume of 5 μL per gram, mice group-housed (n=2-5 mice per cage) and maintained on a 12-hour light-dark cycle (light 6 am-[…]) at a temperature of 21-23° C. […]
Hippocampal tissue from Example 3 was homogenized in a Trizol reagent (QIAzol Lysis Reagent, Qiagen) using a stainless steel bead (Qiagen) and a TissueLyser LT (Qiagen) for 3 min at 20 Hz. […] After RNA extraction, RNA content was measured using a NanoDrop 2000 (Thermo Fisher) and 500 ng of RNA was converted into cDNA by mixing FS buffer and DTT (Thermo Fisher) with Random Primers (Sigma-Aldrich) and incubated for 3 min at 70° C. followed by addition of dNTPs, RNase out, Superscript III (Thermo Fisher) and placed in a thermal cycler for 5 min at 25° C., 60 min at 50° C., 15 min at 70° C., and kept at −20° C. until further processing. […]

[3] = Body weight progression of 5×FAD Alzheimer's disease mouse model; format: in vivo; details: female 5×FAD mice, 100 nmol/kg/day subcutaneous daily, 49 days
Method: Female wild-type (WT) control mice+vehicle treatment (n=12), 5×FAD AD mice+vehicle treatment and 5×FAD AD mice+GLP-1/memantine (100 nmol/kg/day) treatment were subcutaneously injected daily for 49 days following which brain regions of the mice were dissected and saved for ex vivo analyses.
Experiments were conducted using female 5×FAD (Jackson Laboratory, 34840-JAX) mice kept on a chow diet (Altromin #1310, Lage, Germany). The pharmacological studies were initiated at 8-week of age and the mice treated with once-daily subcutaneous injections of GLP-1/memantine or saline (control) for 49 days with weekly measurements of body weight. Specifically, compounds were administered at a volume of 5 μL per gram, mice group-housed (n=2-5 mice per cage) and maintained on a 12-hour light-dark cycle (light 6 am-[…]) at a temperature of 21-23° C. For week 5 and 6, the mice were single-housed and transferred to a digitally ventilated cage system. For week 7, the mice were re-grouped in groups identical to weeks 0 to 4. Finally, mice were euthanized on day 49, tissues harvested, snap-frozen using liquid nitrogen and stored at −80° C. prior to analyses.

[4] = test system: 5×FAD mice; assay: Number of amyloid plaques in frontal cortex and hippocampus of 5×FAD mice (Thioflavine S); format: in vivo; details: once-daily subcutaneous, 49 days, vs saline
Source text: Amyloid plaques are commonly found in subjects suffering from Alzheimer's and is caused by abnormal levels of the naturally occurring protein beta-amyloid 42 which clump together to form plaques that collect between neurons and disrupt cell function. Thus, patients suffering from Alzheimer's display elevated levels of amyloid plaques. […] Thus, without being bound by any particular theory, the inventors postulate that the conjugated molecule according to the present invention has a neuroprotective role.
Experiments were conducted using female 5×FAD (Jackson Laboratory, 34840-JAX) mice kept on a chow diet (Altromin #1310, Lage, Germany). The pharmacological studies were initiated at 8-week of age and the mice treated with once-daily subcutaneous injections of GLP-1/memantine or saline (control) for 49 days. Specifically, compounds were administered at a volume of 5 μL per gram, mice group housed (n=2-5 mice per cage) and maintained on a 12-hour light-dark cycle (light 6 am-[…]) at a temperature of 21-23° C. For week 5 and 6, the mice were single-housed and transferred to a digitally ventilated cage system. […] Every 6th slide through hippocampus (bregma: −2.80 mm to −0.94 mm) and frontal cortex (bregma: 0.14 mm to 2.96 mm) were collected and stained with Thioflavine S to quantify amyloid plaque deposition.

Row | Substance | NMDA-induced neurotoxicity (Lactate Dehydrogenase activity in media as indirect measure of cytotoxicity) [1] | expression (mRNA) of pro-inflammatory markers IL-1b, IL-6 and TNF-α in hippocampus [2] | body weight progression [3] | number of amyloid plaques in frontal cortex and hippocampus [4]
1 | GLP-1 Pen40/memantine: GLP-1 peptide of SEQ ID NO:1 with Pen40, conjugated to memantine via disulfide linker (penicillamine linked) (HAEGTFTSDVSSYLEEQAAKEFIAWLVKGGPSSGAPPPS[Pen]([disulfide linker-memantine])-NH2; reading uncertain; listed as Homo sapiens) | prevents the NMDA-induced neurotoxicity | completely abolishes the induction of inflammation | elicits only a transient weight loss | reduced formation of amyloid plaques
2 | GLP-1: GLP-1 peptide alone, the unconjugated peptide control in the neuroprotection test [reference compound] | but not GLP-1 peptide alone, prevents the NMDA-induced neurotoxicity |  |  | 
